Data published in US10293018B2, “Fusion protein for treating rejection reaction in transplantation” (Immunwork Inc., priority 2015, dated 2019).

Columns and labels:
[1] = test system: mTOR/p70S6K signaling pathway; assay: Western blot analysis of mTOR/p70S6K signaling pathway in Jurkat T cells; type: cell-based, human; settings: 100 nM compound with 10 ng/ml IL2, 24 hours, without changes in total p70S6K, FIG. 20A
Experimental: To examine the biological activities of these compounds, western blot analysis of mTOR/p70S6K signaling pathway and T-cell proliferation assay were performed with human Jurkat T cells. T-cell viability and proliferation were assessed using alamarBlue® cell viability reagent (Invitrogen).
For the western blot analysis of mTOR/p70S6K signaling pathway, briefly, Jurkat T cell were seeded into 6-cm cell culture dish in RPM11640 medium containing 10% fetal bovine serum.
Insoluble material was collected by centrifugation at 14,000×g for 20 minutes at 4° C. The cell lysate samples were separated on 10% SDS-PAGE gels and transferred to a PVDF membrane (Millipore). The membrane blots were blocked in PBS containing 5% BSA for 1 hour at room temperature, and incubated with primary antibodies, anti-phospho-p70S6K antibody (Cell Signaling Technology, Danvers, USA) and anti-p70S6K antibody (Cell Signaling Technology), overnight at 4° C. […] Then the membranes were washed three times with TBST, and immunoreacted bands were detected with ECL™ western blotting detection reagents (Millipore) and exposed on Fujifilm (Tokyo, Japan). Relative quantification of ECL signals on X-ray films were analyzed by using Image J (NIH, Bethesda, Md., USA).

scFv specific for CTLA-4 = assay: Western blot of recombinant CTLA-4 detected with scFv specific for CTLA-4; type: binding; settings: scFv 1 μg/ml; FIG. 14C
Experimental: Recombinant CTLA-4 protein was analyzed and detected using western blotting. Briefly, 50 μl of the purified CTLA-4 protein was electrophoresed on the 12% SDS-PAGE gel (lane 2) and electroblotted over to a PDVF membrane. The protein (CTLA-4)-IgG1Fc-(scFv α HLA-A1) was used as a positive control (lane 1). After blocking with 5% BSA in TBST at room temperature for 1 hour, the diluted scFv specific for CTLA-4 (1 μg/ml) was added and incubated with the membrane overnight at 4° C. with gentle shaking. The membrane was rinsed and washed 3 times with TBST. The diluted HRP-conjugated protein L (1:5000) was added and incubated with the membrane at room temperature for 1 hour, and the rinse and wash cycle was repeated with TBST for 3 times. The membrane was then incubated with HRP substrate solution for 20 minutes before being exposed to the photographic film.

PD1-IgG1.Fc = biological target: T1, PD1-IgG1.Fc (Homo sapiens, UniProt Q15116); assay: ELISA of coated recombinant PD-L1 binding PD1-IgG1.Fc; settings: PD-L1 coated at 50 μg/ml, PD1-IgG1.Fc at 50 μg/ml; FIG. 14D
T1 construct: made in house; host or cells: Expi293F
Experimental: Binding activity of recombinant PD-L1 protein was assayed with ELISA using a 96-well plate coated with recombinant PD-L1 protein in 50 μg/ml concentration, 100 μl per well. After the excess PD-L1 was washed off and the solid phase blocked, 100 μl per well of PD1-IgG1.Fc at 50 μg/ml was added. The bound PD1-IgG1.Fc was determined by HRP-conjugated goat anti-human IgG.Fc. 50 μl of TMB substrate was added for color development. The reaction was stopped by 50 μl of 1M HCl. Absorbance at 450 nm was measured with a plate reader. Each bar represents the mean OD450 value of duplicate samples.

human HLA-A2 = biological target: T2, human HLA-A2 (Homo sapiens, UniProt P04439); assay: Single colony ELISA of phage-displayed scFvs specific for human HLA-A2; type: binding; settings: secreted scFv in supernatant; HLA-A2 0.5 μg per well; FIG. 16B
T2 construct: made in house; host or cells: Expi293F
Experimental: E. coli strain ER2738 infected with single-clonal phages each harboring a selected scFv gene in its phagemid was grown in the mid-log phase in 2YT broth (16 g/l tryptone, 10 g/l yeast extract, 5 g/l NaCl, pH 7.0) with 100 μg/ml ampicillin in deep well at 37° C. with shaking. After the broth reached an OD600 of 1.0, IPTG was added to a final concentration of 1 μg/ml. The plates were incubated at 37° C. overnight under rigorously shaking. Thereafter, the plates were centrifuged at 4,000 g for 15 minutes at 4° C.
For soluble scFv binding test, ELISA was carried out. Briefly, 96-well Maxisorp 96-well plate (Nunc) was coated with human HLA-A2 (0.5 μg/100 μl PBS per well) or two negative control antigens, human heat shock protein 70 (Hsp 70) and RSV-IgG1.Fc fusion protein (prepared by our laboratory), for 18 hours with shaking at 4° C. After being treated with 300 μl of blocking buffer for 1 hour, 100 μl of secreted scFv in the supernatant was mixed with 100 μl of blocking buffer and then added to the coated plate for another 1 hour. Goat anti-E-tag antibody (conjugated with HRP, 1:4000, Cat. No. AB19400, Abcam) was added to the plate for 1 hour. TMB substrate (50 μl per well) was added to the wells and the absorbance at 450 nm was measured after reactions were stopped by adding 1N HCl (50 μl per well).

human HLA-A1 [2] = biological target: T3, human HLA-A1 (Homo sapiens, UniProt P04439); assay: ELISA of purified scFv of mAb specific for human HLA-A1; type: binding; settings: scFv specific for TNF-α as negative control; FIG. 15C
T3 construct: made in house; host or cells: Expi293F
Experimental: The expression of the constructed gene in Expi293F cells was performed as in preceding Examples. Culture supernatants were harvested and scFv proteins in the media were purified using Protein L affinity chromatography. FIGS. 15A, 15B and 15C show 12% SDS-PAGE, mass spectrometric and ELISA analyses of purified scFv of mAb specific for human HLA-A1. […] The scFv specific for TNF-α was used as a negative control, which was prepared as described in PCT patent application publication No. WO/2016112870.

human HLA-A1 [3] = biological target: T3, human HLA-A1; assay: ELISA of tetrazine-conjugated scFv specific for human HLA-A1; type: binding; settings: unmodified scFv as positive control; FIG. 17B
Description: The purity of tetrazine-conjugated scFv specific for human HLA-A1 was identified through Coomassie blue staining of 12% SDS-PAGE. FIGS. 17A and 17B show, respectively, the mass spectrometric and ELISA analysis of tetrazine-conjugated scFv specific for human HLA-A1, in which unmodified scFv specific for human HLA-A1 was used as a positive control.

T1 sequence (Q15116 with tags, fused parts or gaps): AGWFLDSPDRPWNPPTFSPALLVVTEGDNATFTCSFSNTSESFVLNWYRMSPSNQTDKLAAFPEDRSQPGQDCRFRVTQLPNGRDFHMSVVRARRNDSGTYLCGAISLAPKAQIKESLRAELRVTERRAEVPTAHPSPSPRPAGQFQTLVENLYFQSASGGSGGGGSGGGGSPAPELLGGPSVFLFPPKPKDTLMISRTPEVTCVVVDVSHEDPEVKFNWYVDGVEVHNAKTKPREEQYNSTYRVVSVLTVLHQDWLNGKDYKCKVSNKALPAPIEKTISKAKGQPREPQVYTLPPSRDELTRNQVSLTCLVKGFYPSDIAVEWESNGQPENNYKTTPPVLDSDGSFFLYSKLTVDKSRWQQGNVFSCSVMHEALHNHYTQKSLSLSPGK

Molecule: COC1CC2CCC(C)C(O)(O2)C(=O)C(=O)N2CCCCC2C(=O)OC(C(C)CC2CCC(OC(=O)CN)C(OC)C2)CC(=O)C(C)C=C(C)C(O)C(OC)C(=O)C(C)CC(C)C=CC=CC=C1C (stereo not shown) [sirolimus-Gly]
- phosphorylated level of p70S6K [1]: decreased

Molecule: COC1CC2CCC(C)C(O)(O2)C(=O)C(=O)N2CCCCC2C(=O)OC(C(C)CC2CCC(OC(=O)CNC(=O)CN)C(OC)C2)CC(=O)C(C)C=C(C)C(O)C(OC)C(=O)C(C)CC(C)C=CC=CC=C1C (stereo not shown) [sirolimus-diGly]
- phosphorylated level of p70S6K [1]: decreased

Molecule: recombinant human CTLA-4: recombinant human CTLA-4, SEQ ID NO: 30, with GGGGSGGGGS linker and terminal cysteine at the C-terminus
- binding by the scFv specific for CTLA-4 (western blot) (scFv specific for CTLA-4): specifically bound

Molecule: recombinant human PD-L1: recombinant human PD-L1, SEQ ID NO: 31, with GGGGSGGGGS linker and terminal cysteine at the C-terminus
- binding to recombinant PD1-IgG1.Fc (ELISA) (PD1-IgG1.Fc): specifically bound

B1: 3E10: phage-displayed scFv clone that binds to human HLA-A2, SEQ ID NO: 34 (protein)
scFv: DIQMTQSPSSLSASVGDRVTITCRASQDVFFFVAWYQQKPGKAPKLLIYGPPGLYSGVPSRFSGSGSGTDFTLTISSLQPEDFATYYCQQYFSFPITFGQGTKVEIKRGGGGSIEGRSGGGGSEVQLVESGGGLVQPGGSLRLSCAASGFTISNGGIHWVRQAPGKGLEWVASIWPSGGYTSYADSVKGRFTISADTSKNTAYLQMNSLRAEDTAVYYCARFGVNYHGIMDYWGQGTLVTVSS
modifications: phage-displayed scFv specific for HLA-A2, 3E10
- OD450 of binding to human HLA-A2 (human HLA-A2): 1.3

B2: scFv of mAb specific for human HLA-A1: scFv with VL and VH from monoclonal antibody 4-35-7, SEQ ID NO: 32 (protein)
scFv: DIQMTQSPSTLSASVGDRVTITCRASQSISNWLAWYQQKPGKAPNLLIYKASSLESGVPSRFSGSGSGTEFTLTISSLQPDDFATYYCQQYHDYSVTFGAGTKVEIKRGGGGSGGGGSGGGGSEVQLLESGGGLVQPGGSQRLSCVASGVPFSNYAMNWVRQAPGKGLEWVSSISGGGDRTFYADSVKGRFTISRDNSKNTLYLQMNSLGAGDTAVYYCAKTYYDFWSGYSRHLNSWGQGSLVTVSSGGGGSGGGGSC
modifications: anti-HLA-A1 4-35-7 scFv
- binding to human HLA-A1 (ELISA) (human HLA-A1 [2]): bound specifically

B3: tetrazine-conjugated scFv specific for human HLA-A1: scFv specific for human HLA-A1 (SEQ ID NO: 32) conjugated at C-terminal cysteine with Mal-PEG4-tetrazine (conjugate)
scFv: B2 scFv
modifications: Mal-PEG4-tetrazine at C-terminal cysteine; anti-HLA-A1 4-35-7 scFv
- binding to recombinant HLA-A1 (ELISA) (human HLA-A1 [3]): bound to recombinant HLA-A1
